Assays:
Immunoglobulin A = target: T1, Immunoglobulin A; assay: ELISA; coated glycoprotein, biotin-labeled lectin 1 µg/mL; grade of A450 reaction value (Low 0.1 to 0.2, Moderate 0.2 to 0.5, High 0.5 or more)
T1 construct: Serum glycoprotein coated on the plate; also called IgA
Method: (§1) Serum glycoprotein (human serum albumin (CALBIOCHEM), Immunoglobulin G (Sigma), transferrin (Sigma), fibrinogen (AbD Serotec), Immunoglobulin A (BETYL) α2-macroglobulin (BMO), Immunoglobulin M (ROCKLAND), Complement C3 (CALBIOCHEM), haptoglobin (BIODESIGN), α1-acidic glycoprotein (Sigma), α-fetoprotein (Fitzgerald), α-fetoprotein L3 (Wako Pure Chemical Industries, Ltd) and prostate-specific antigen (Scipac) were dissolved in PBS at 1 mg/mL, and further diluted to 10 ng/mL with 0.1 M carbonate buffer (pH 9.5). Fifty μL of the diluted solution was added to a microtiter plate (Nunc 439454), and then incubated at 37° C. for 1 hour. After washed once with 0.05% Tween 20 (polyoxyethylene sorbitan monolaurate) (hereafter abbreviated as Tween)/PBS, 200 μL, of 1% bovine serum albumin (BSA)/PBS was added to the wells, and then incubated at 37° C. for 1 hour. The plate was washed twice with 0.05% Tween/PBS.
(§2) Fifty μL of the biotin labeled lectin solution prepared to 1 μg/mL with 1% BSA/0.05% Tween/PBS was added to the wells, and then left at room temperature for 1 hour. After washed twice with 0.05% Tween/PBS, 50 μL of the HRP labeled streptavidin solution (1 μg/mL) diluted with 1% BSA/0.05% Tween/PBS was added to the wells, and then left at room temperature for 30 minutes. After washed three times with 0.05% Tween/PBS, 50 μL of the HRP chromogenic substrate (product name: TMB Peroxidase substrate system, KPL) was added, and then left at room temperature for 5 minutes.
(§3) The absorbance values at 450 nm were subtracted by the absorbance value from the well on the plate in which no glycoprotein was immobilized, and the resulting values were taken as reaction values. Affinity was ranked by classifying the reaction values according to the following criteria.

α2-Macroglobulin = target: T2, α2-Macroglobulin; assay: as above
T2 construct: Bought protein coated on the plate; also called α2MG
T2 sequence (P01023 24-1474, species assumed, looked up): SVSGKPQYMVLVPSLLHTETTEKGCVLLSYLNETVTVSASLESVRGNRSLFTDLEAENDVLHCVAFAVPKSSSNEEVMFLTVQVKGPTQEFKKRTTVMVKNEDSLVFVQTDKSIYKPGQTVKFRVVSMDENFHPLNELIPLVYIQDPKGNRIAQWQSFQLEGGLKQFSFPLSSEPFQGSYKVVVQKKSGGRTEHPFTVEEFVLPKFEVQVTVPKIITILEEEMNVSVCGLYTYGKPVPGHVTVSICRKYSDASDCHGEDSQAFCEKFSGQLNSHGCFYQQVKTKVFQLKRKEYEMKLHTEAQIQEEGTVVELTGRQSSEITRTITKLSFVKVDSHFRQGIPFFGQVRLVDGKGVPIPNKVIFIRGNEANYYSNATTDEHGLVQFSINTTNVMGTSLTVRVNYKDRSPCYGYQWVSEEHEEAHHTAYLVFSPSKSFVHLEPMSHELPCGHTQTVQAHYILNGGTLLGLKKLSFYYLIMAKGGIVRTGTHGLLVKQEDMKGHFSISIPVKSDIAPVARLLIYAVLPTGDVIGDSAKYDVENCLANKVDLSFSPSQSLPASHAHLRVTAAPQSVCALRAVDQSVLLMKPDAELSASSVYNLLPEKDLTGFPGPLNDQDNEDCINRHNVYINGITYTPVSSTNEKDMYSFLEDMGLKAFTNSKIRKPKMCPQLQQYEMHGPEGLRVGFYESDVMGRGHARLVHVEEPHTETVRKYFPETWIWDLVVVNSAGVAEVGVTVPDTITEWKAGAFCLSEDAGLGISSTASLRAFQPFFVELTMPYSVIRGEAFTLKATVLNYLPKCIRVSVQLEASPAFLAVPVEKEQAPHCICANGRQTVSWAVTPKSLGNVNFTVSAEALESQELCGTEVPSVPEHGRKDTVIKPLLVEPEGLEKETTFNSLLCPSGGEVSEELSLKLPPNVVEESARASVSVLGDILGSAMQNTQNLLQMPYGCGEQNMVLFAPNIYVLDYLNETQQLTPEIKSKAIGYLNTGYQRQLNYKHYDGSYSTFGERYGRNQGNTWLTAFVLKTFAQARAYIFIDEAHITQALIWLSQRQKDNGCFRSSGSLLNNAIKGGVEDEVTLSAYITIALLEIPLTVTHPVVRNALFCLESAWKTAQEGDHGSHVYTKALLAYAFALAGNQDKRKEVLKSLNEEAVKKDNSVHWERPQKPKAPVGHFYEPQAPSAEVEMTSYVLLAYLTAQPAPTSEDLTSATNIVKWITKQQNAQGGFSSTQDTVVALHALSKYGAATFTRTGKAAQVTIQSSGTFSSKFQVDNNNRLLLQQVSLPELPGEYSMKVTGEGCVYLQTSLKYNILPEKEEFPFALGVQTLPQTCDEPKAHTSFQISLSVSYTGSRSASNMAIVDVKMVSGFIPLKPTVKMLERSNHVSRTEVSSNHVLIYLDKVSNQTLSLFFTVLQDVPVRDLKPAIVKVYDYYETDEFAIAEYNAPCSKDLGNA
Method: as §1, §2, §3

Immunoglobulin M = target: T3, Immunoglobulin M; assay: as above
T3 construct: Serum glycoprotein coated on the plate; also called IgM
Method: as §1, §2, §3

Complement C3 = target: T4, Complement C3; assay: as above
T4 construct: Bought protein coated on the plate
T4 sequence (P01024 23-667, chain 1 of 2): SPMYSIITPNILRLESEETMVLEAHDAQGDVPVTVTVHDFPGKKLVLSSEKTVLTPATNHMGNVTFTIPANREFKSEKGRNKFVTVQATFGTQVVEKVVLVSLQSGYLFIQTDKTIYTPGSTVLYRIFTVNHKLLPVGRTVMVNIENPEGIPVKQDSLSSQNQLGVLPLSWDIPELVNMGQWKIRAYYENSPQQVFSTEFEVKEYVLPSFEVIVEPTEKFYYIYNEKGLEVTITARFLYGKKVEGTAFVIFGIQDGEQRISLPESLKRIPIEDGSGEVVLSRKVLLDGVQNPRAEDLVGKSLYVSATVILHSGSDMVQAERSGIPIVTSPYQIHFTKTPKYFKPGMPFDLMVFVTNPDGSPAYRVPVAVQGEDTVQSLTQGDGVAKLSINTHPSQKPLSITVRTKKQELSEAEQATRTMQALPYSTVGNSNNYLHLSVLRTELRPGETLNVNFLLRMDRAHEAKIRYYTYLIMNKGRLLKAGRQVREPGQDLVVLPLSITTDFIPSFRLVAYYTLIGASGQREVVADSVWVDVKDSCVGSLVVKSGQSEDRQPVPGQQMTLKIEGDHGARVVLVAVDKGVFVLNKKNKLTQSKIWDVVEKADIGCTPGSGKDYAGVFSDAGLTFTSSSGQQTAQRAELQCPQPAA
T4 sequence (P01024 672-1663, chain 2 of 2): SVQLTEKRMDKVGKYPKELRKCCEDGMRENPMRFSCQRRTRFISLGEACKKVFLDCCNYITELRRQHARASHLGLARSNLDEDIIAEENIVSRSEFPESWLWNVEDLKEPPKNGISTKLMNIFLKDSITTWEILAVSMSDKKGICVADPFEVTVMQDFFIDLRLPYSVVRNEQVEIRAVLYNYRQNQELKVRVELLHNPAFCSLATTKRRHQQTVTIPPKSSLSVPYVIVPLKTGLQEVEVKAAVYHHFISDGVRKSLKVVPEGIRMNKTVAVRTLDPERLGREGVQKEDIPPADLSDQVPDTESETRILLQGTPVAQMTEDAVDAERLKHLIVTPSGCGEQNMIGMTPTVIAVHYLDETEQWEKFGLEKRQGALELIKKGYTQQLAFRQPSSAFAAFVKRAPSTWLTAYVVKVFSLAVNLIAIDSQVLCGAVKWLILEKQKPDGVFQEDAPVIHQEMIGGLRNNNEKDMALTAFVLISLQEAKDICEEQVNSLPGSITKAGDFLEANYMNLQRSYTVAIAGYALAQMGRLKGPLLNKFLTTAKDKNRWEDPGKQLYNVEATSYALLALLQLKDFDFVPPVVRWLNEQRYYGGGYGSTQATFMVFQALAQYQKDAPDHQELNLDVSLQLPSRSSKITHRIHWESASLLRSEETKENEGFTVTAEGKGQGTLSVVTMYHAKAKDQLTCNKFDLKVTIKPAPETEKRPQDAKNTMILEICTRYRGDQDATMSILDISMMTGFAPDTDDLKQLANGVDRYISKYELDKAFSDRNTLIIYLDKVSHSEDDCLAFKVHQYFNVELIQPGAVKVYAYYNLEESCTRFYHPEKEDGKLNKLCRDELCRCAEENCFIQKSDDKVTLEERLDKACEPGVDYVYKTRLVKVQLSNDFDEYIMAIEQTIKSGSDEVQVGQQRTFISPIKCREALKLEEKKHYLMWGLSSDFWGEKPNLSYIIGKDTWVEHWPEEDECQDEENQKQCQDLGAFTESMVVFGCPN
Method: as §1, §2, §3

[1] = target: T5, Haptoglobin from human serum (human, UniProt P00738 19-406, limits assumed, N-linked and O-linked glycans containing almost no fucose); assay: as above
T5 construct: Natural haptoglobin is processed into α and β chains; also called Haptoglobin (HP); Serum HP
T5 sequence (looked up): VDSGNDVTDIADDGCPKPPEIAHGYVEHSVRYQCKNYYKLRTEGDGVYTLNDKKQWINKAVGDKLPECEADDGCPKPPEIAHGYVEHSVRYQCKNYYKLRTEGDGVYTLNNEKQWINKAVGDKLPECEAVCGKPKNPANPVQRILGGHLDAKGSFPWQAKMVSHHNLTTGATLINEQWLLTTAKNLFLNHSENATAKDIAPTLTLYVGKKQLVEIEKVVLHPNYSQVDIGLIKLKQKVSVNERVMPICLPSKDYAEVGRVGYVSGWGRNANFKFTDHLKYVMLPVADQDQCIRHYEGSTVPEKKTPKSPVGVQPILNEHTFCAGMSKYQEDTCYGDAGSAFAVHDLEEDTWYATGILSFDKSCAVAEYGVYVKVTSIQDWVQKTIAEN
Method: as §1, §2, §3

α1-Acid glycoprotein = target: T6, α1-Acid glycoprotein; assay: as above
T6 construct: Bought protein coated on the plate; also called AGP; α1-acidic glycoprotein
T6 sequence (P02763 19-201): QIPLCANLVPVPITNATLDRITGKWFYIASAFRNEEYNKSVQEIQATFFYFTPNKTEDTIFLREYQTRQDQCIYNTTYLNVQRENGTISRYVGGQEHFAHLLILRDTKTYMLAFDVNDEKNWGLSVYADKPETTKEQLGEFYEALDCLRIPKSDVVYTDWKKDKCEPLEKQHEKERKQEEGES
Method: as §1, §2, §3

Human serum albumin [2] = target: T7, Human serum albumin (human, UniProt P02768 25-609); assay: as above
T7 construct: Bought protein coated on the plate; also called HAS
T7 sequence (P02768 25-609 limits assumed): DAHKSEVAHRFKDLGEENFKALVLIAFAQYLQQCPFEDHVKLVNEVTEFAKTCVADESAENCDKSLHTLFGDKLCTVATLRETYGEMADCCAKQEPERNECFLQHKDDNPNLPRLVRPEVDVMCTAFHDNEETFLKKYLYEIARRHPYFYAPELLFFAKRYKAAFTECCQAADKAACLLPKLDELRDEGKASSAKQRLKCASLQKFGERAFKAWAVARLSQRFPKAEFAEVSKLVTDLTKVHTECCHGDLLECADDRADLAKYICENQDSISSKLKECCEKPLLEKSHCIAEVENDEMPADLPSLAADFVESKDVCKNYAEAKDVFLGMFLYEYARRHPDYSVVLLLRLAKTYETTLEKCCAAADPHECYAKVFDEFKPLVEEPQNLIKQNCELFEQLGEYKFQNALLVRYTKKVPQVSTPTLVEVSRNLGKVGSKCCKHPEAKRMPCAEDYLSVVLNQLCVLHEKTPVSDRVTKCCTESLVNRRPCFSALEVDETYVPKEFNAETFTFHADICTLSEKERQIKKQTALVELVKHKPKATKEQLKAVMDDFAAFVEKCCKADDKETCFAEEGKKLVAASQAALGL
Method: as §1, §2, §3

Immunoglobulin G = target: T8, Immunoglobulin G; assay: as above
T8 construct: Serum glycoprotein coated on the plate; also called IgG
Method: as §1, §2, §3

Transferrin = target: T9, Transferrin; assay: as above
T9 construct: Bought protein coated on the plate; also called TF
T9 sequence (P02787 20-698): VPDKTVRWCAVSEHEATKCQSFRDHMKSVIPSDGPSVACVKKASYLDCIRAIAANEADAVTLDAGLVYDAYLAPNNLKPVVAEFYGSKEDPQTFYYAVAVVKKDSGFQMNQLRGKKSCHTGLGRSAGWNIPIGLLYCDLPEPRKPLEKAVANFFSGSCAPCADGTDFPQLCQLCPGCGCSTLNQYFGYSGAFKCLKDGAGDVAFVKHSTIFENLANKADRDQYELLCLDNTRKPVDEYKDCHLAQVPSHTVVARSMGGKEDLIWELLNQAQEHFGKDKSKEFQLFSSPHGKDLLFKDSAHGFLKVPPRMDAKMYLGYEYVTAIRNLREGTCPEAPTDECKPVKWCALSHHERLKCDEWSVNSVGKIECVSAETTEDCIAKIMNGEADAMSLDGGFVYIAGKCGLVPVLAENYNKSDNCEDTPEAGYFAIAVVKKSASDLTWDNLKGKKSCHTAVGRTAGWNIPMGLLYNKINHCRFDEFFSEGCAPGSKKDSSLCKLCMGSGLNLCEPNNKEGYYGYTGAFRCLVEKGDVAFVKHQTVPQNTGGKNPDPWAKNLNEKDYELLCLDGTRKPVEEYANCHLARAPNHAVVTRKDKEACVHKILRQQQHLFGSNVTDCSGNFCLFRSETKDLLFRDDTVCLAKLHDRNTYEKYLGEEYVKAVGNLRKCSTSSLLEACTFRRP
Method: as §1, §2, §3

Fibrinogen = target: T10, Fibrinogen; assay: as above
T10 construct: Bought protein coated on the plate; also called FB
Method: as §1, §2, §3

Human serum albumin [3] = target: T7, Human serum albumin; assay: ELISA; glycoprotein coated at 10 ng/mL, biotin-labeled lectin
Method: as §1, §2, §3

[4] = target: T5, Haptoglobin from human serum; assay: as above
Method: as §1, §2, §3

B1: Aleuria aurantia lectin (other, UniProt P18891 2-313, looked up)
chain: PTEFLYTSKIAAISWAATGGRQQRVYFQDLNGKIREAQRGGDNPWTGGSSQNVIGEAKLFSPLAAVTWKSAQGIQIRVYCVNKDNILSEFVYDGSKWITGQLGSVGVKVGSNSKLAALQWGGSESAPPNIRVYYQKSNGSGSSIHEYVWSGKWTAGASFGSTVPGTGIGATAIGPGRLRIYYQATDNKIREHCWDSNSWYVGGFSASASAGVSIAAISWGSTPNIRVYWQKGREELYEAAYGGSWNTPGQIKDASRPTPSLPDTFIAANSSGNIDISVFFQASGVSLQQWQWISGKGWSIGAVVPTGTPAGW
modifications: biotin label (site not stated)
notes: Bought, biotin-labeled; also called AAL
For B1, the “reaction value (absorbance at 450 nm minus blank)” value (Immunoglobulin A) was 0.2 to 0.5 od, the “reaction value (absorbance at 450 nm minus blank)” value (α2-Macroglobulin) was at least 0.5 od and the “reaction value (absorbance at 450 nm minus blank)” value (Immunoglobulin M) was 0.2 to 0.5 od. The “reaction value (absorbance at 450 nm minus blank)” value (Complement C3) was 0.1 to 0.2 od, the “reaction value (absorbance at 450 nm minus blank)” value [1] was 0.1 to 0.2 od and the “reaction value (absorbance at 450 nm minus blank)” value (α1-Acid glycoprotein) was 0.2 to 0.5 od. The “reaction value (absorbance at 450 nm minus blank)” value (Human serum albumin [2]) was 0.1 to 0.2 od, the “reaction value (absorbance at 450 nm minus blank)” value (Immunoglobulin G) was 0.1 to 0.2 od and the “reaction value (absorbance at 450 nm minus blank)” value (Transferrin) was 0.1 to 0.2 od. For the same binder, the “reaction value (absorbance at 450 nm minus blank)” value (Fibrinogen) was 0.1 to 0.2 od.

B2: Lens culinaris lectin (other)
chain 1: TETTSFSITKFSPDQKNLIFQGDGYTTKGKLTLTKAVKSTVGRALYSTPIHIWDRDTGNVANFVTSFTFVIDAPSSYNVADEFTFFIAPVDTKPQTGGGYLGVFNSKEYDKTSQTVAVEFDTFYNAAWDPSNKERHIGIDVNSIKSVNTKSWNLQNGERANVVIAFNAATNVLTVTLTYP
chain 2: VTSYTLNEVVPLKDVVPEWVRIGFSATTGAEFAAHEVHSWSFHSELGGTSSS
modifications: biotin label (site not stated)
notes: Bought, biotin-labeled; The natural lectin is processed into alpha and beta chains; also called LCA
B2: no binding (Human serum albumin [3]).

B3: Ulex europaeus lectin (other, UniProt P22972 1-243, looked up)
chain: SDDLSFKFKNFSQNGKDLSFQGDASVIETGVLQLNKVGNNLPDETGGIARYIAPIHIWNCNTGEVASFITSFSFFMETSANPKAATDGLTFFLAPPDSPLRRAGGYFGLFEDTKDNDSSYQTVAVEFDTIGSPVNFDDPGFPHIGIDVNRVKSINAERWNKRYGLNNVANVEIIYEASSKTLTASLTYPSDQTSISVTSIVDLKEILPEWVSVGFSGGTYIGRQATHEVLNWYFTSNLINTNS
modifications: biotin label (site not stated)
notes: Bought, biotin-labeled; also called UEA-I; UEA- 1
B3: no binding [4]; no binding (Human serum albumin [3]).

— US20120244563A1 (J OIL MILLS, published 2012)
